Tested on: T1, 7-nitrobenz-2-oxa-1,3-diazole (NBD)-NH-Ser-Phe-Arg4-Lys-amide 2
T1 sequence: SFRRRRK

recombinant human protein kinase C γ was tested, and the Km (Fluorescence assay) was 30 µM, the Km (Radioactive assay) was 5 µM and the kcat (Fluorescence assay) was 3.17 s⁻¹. For the same substance, the kcat (Radioactive assay) was 3.5 s⁻¹, the kcat/Km (Fluorescence assay) was 105000 M⁻¹ s⁻¹ and the kcat/Km (Radioactive assay) was 700000 M⁻¹ s⁻¹.
